Test results published in the Immune Epitope Database (IEDB).

What was measured:
Assay in all cases: IEDB peptide-MHC binding, purified MHC/competitive/radioactivity; ≥ and ≤ were set here for values at or beyond the usual limits of such assays
Conditions in all cases: source organism: Bordetella pertussis
HLA-A*02:01 = target: HLA-A*02:01
HLA-B*35:01 = target: HLA-B*35:01
HLA-B*53:01 = target: HLA-B*53:01
HLA-B*57:01 = target: HLA-B*57:01
HLA-B*44:03 = target: HLA-B*44:03
HLA-B*07:02 = target: HLA-B*07:02

ALANDGTIV
IC50 (HLA-A*02:01): ≥ 78.1 µM

DATFQTYAL
IC50 (HLA-B*35:01): 17 µM | IC50 (HLA-B*53:01): 65.4 µM

DHLTGRSCQ
IC50 (HLA-B*57:01): ≥ 70.4 µM

EVAGALELS
IC50 (HLA-B*35:01): 69.9 µM

FEGKPALEL
IC50 (HLA-B*44:03): ≥ 70.1 µM

GAFDLKTTF
IC50 (HLA-B*57:01): 50.9 µM

GKSLKKKNQ
IC50 (HLA-B*35:01): 69.9 µM

KPLADIAVV
IC50 (HLA-B*07:02): 5.56 µM

LALQAGDAL
IC50 (HLA-B*35:01): 31.5 µM

MAAGHDATL
IC50 (HLA-B*53:01): 6.13 µM

NITNKRAAL
IC50 (HLA-B*07:02): 22.9 µM

PKPKPKPKA
IC50 (HLA-B*35:01): 69.9 µM

RSRVRALSW
IC50 (HLA-B*57:01): 0.0584 µM

VSSATKAKG
IC50 (HLA-B*57:01): ≥ 70.4 µM
